These sequences were tested on Escherichia coli TOP10 (assay: shrunken log2 fold change of peptide-encoding DNA abundance (4.5 h post-induction vs induction); higher = less antimicrobial activity (less host growth inhibition)). Settings: time post-induction: 4.5 h; library: site-saturation at positions 5, 18, 19, 20.
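Note: peptides expressed intracellularly from a pBAD plasmid library in pooled LB shake-flask culture, induced with 0.3% L-arabinose, DNA abundance read by NGS, three biological replicates, DESeq2 with apeglm shrinkage.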

| Sequence | shrunken log2 fold change |
| --- | --- |
| RRIRFRPPRLPRPRPRPDSAPRP | -0.102 |
| RRIRDRPPRLPRPRPRPAHHPRP | 0.113 |
| RRIRLRPPRLPRPRPRPLDLPRP | -0.481 |
| RRIRDRPPRLPRPRPRPQCAPRP | 0.0622 |
| RRIRGRPPRLPRPRPRPSFCPRP | 0.348 |
| RRIRGRPPRLPRPRPRPWVSPRP | -0.0322 |
| RRIRHRPPRLPRPRPRPTELPRP | 0.0215 |
| RRIRHRPPRLPRPRPRPKRQPRP | -0.0409 |
| RRIRFRPPRLPRPRPRPSAWPRP | 0.534 |
| RRIRKRPPRLPRPRPRPIMAPRP | 0.0791 |
| RRIRKRPPRLPRPRPRPQGVPRP | -0.0162 |
| RRIRFRPPRLPRPRPRPDAVPRP | -0.0144 |
| RRIRMRPPRLPRPRPRPPCKPRP | -0.0348 |
| RRIRQRPPRLPRPRPRPECKPRP | -0.0182 |
| RRIRFRPPRLPRPRPRPMGQPRP | -0.0471 |
| RRIRRRPPRLPRPRPRPDHVPRP | 0.101 |
| RRIRGRPPRLPRPRPRPDTHPRP | -0.156 |
| RRIRRRPPRLPRPRPRPYATPRP | 0.418 |
| RRIRERPPRLPRPRPRPVKKPRP | -0.179 |
| RRIRFRPPRLPRPRPRPFFCPRP | -0.206 |
| RRIRTRPPRLPRPRPRPIEHPRP | 0.0859 |
| RRIRVRPPRLPRPRPRPTDCPRP | -0.184 |
| RRIRDRPPRLPRPRPRPPLVPRP | 0.194 |
| RRIRLRPPRLPRPRPRPYAEPRP | -0.101 |
| RRIRPRPPRLPRPRPRPKGPPRP | 0.641 |

| Sequence | shrunken log2 fold change |
| --- | --- |
| RRIRVRPPRLPRPRPRPKGGPRP | 0.0495 |
| RRIRRRPPRLPRPRPRPFFCPRP | 0.167 |
| RRIRGRPPRLPRPRPRPKWRPRP | 0.795 |
| RRIRYRPPRLPRPRPRPHCSPRP | -0.239 |
| RRIRLRPPRLPRPRPRPQMNPRP | -0.507 |
| RRIRWRPPRLPRPRPRPTEWPRP | 0.327 |
| RRIRTRPPRLPRPRPRPEPKPRP | 0.376 |
| RRIRARPPRLPRPRPRPQYDPRP | -0.018 |
| RRIRRRPPRLPRPRPRPWNAPRP | -0.0963 |
| RRIRSRPPRLPRPRPRPTLLPRP | 0.227 |
| RRIRDRPPRLPRPRPRPGNMPRP | -0.164 |
| RRIRCRPPRLPRPRPRPCLRPRP | -0.229 |
| RRIRCRPPRLPRPRPRPTTEPRP | 0.419 |
| RRIRYRPPRLPRPRPRPTIEPRP | -0.391 |
| RRIRFRPPRLPRPRPRPPCVPRP | 0.0878 |
| RRIRRRPPRLPRPRPRPVYCPRP | -0.0322 |
| RRIRGRPPRLPRPRPRPCFRPRP | 0.0644 |
| RRIRNRPPRLPRPRPRPLADPRP | -0.00474 |
| RRIRQRPPRLPRPRPRPQGIPRP | -0.602 |
| RRIRYRPPRLPRPRPRPMNWPRP | -0.463 |
| RRIRYRPPRLPRPRPRPNESPRP | 0.0169 |
| RRIRYRPPRLPRPRPRPGDRPRP | 0.196 |
| RRIRSRPPRLPRPRPRPPDDPRP | 0.488 |
| RRIRIRPPRLPRPRPRPDNRPRP | -0.00277 |
| RRIRSRPPRLPRPRPRPYRNPRP | -0.254 |

| Sequence | shrunken log2 fold change |
| --- | --- |
| RRIRPRPPRLPRPRPRPCLHPRP | -0.248 |
| RRIRHRPPRLPRPRPRPMSHPRP | -0.0479 |
| RRIRTRPPRLPRPRPRPTEKPRP | 0.015 |
| RRIRMRPPRLPRPRPRPGCIPRP | 0.0871 |
| RRIRQRPPRLPRPRPRPWMFPRP | -0.374 |
| RRIRCRPPRLPRPRPRPAHSPRP | -0.129 |
| RRIRCRPPRLPRPRPRPHMLPRP | -0.431 |
| RRIRKRPPRLPRPRPRPYCEPRP | -0.102 |
| RRIRCRPPRLPRPRPRPTYIPRP | -0.959 |
| RRIRNRPPRLPRPRPRPKPAPRP | 0.601 |
| RRIRHRPPRLPRPRPRPRDLPRP | -0.0495 |
| RRIRLRPPRLPRPRPRPFIDPRP | -0.439 |
| RRIRTRPPRLPRPRPRPTNTPRP | -0.536 |
| RRIRVRPPRLPRPRPRPQQSPRP | -0.0738 |
| RRIRNRPPRLPRPRPRPDMMPRP | -0.233 |
| RRIRTRPPRLPRPRPRPKCCPRP | -0.133 |
| RRIRRRPPRLPRPRPRPARTPRP | 0.35 |
| RRIRKRPPRLPRPRPRPPKCPRP | 0.069 |
| RRIRTRPPRLPRPRPRPNTNPRP | -0.556 |
| RRIRQRPPRLPRPRPRPYDQPRP | 0.0352 |
| RRIRARPPRLPRPRPRPCRPPRP | -0.153 |
| RRIRNRPPRLPRPRPRPQQHPRP | -0.111 |
| RRIRSRPPRLPRPRPRPSCWPRP | 0.306 |
| RRIRVRPPRLPRPRPRPICVPRP | -0.0314 |
| RRIRCRPPRLPRPRPRPNHWPRP | -0.0209 |

| Sequence | shrunken log2 fold change |
| --- | --- |
| RRIRWRPPRLPRPRPRPLGLPRP | 0.116 |
| RRIRARPPRLPRPRPRPHKIPRP | -0.0893 |
| RRIRNRPPRLPRPRPRPRNKPRP | -0.107 |
| RRIRWRPPRLPRPRPRPGMQPRP | 0.775 |
| RRIRTRPPRLPRPRPRPQDAPRP | -0.0107 |
| RRIRRRPPRLPRPRPRPNFQPRP | 0.253 |
| RRIRLRPPRLPRPRPRPTRNPRP | 0.24 |
| RRIRCRPPRLPRPRPRPQRVPRP | -0.158 |
| RRIRFRPPRLPRPRPRPLENPRP | -0.0435 |
| RRIRDRPPRLPRPRPRPFCGPRP | 0.258 |
| RRIRNRPPRLPRPRPRPPVMPRP | 0.139 |
| RRIRYRPPRLPRPRPRPNFNPRP | -0.818 |
| RRIRSRPPRLPRPRPRPFEFPRP | -0.42 |
| RRIRHRPPRLPRPRPRPEHYPRP | 0.504 |
| RRIRWRPPRLPRPRPRPVDPPRP | 0.158 |
| RRIRFRPPRLPRPRPRPDQFPRP | -0.221 |
| RRIRKRPPRLPRPRPRPMKSPRP | 0.37 |
| RRIRRRPPRLPRPRPRPPKLPRP | 0.0716 |
| RRIRGRPPRLPRPRPRPCSLPRP | 0.237 |
| RRIRARPPRLPRPRPRPTACPRP | 0.405 |
| RRIRCRPPRLPRPRPRPVENPRP | 0.112 |
| RRIRKRPPRLPRPRPRPKAPPRP | 0.62 |
| RRIRARPPRLPRPRPRPQRVPRP | -0.188 |
| RRIRYRPPRLPRPRPRPAGQPRP | 0.00356 |
| RRIRGRPPRLPRPRPRPINYPRP | 0.000824 |

| Sequence | shrunken log2 fold change |
| --- | --- |
| RRIRDRPPRLPRPRPRPLLMPRP | 0.359 |
| RRIRNRPPRLPRPRPRPNQNPRP | 0.337 |
| RRIRERPPRLPRPRPRPPHHPRP | -0.123 |
| RRIRCRPPRLPRPRPRPGHLPRP | -0.0824 |
| RRIRTRPPRLPRPRPRPHEKPRP | -0.0018 |
| RRIRKRPPRLPRPRPRPCLAPRP | 0.433 |
| RRIRDRPPRLPRPRPRPTQYPRP | -0.191 |
| RRIRLRPPRLPRPRPRPCDSPRP | -0.165 |
| RRIRARPPRLPRPRPRPDVQPRP | 0.474 |
| RRIRFRPPRLPRPRPRPDRFPRP | 0.042 |
| RRIRYRPPRLPRPRPRPHHRPRP | -0.306 |
| RRIRQRPPRLPRPRPRPGCMPRP | 0.175 |
| RRIRHRPPRLPRPRPRPANLPRP | -0.00674 |
| RRIRGRPPRLPRPRPRPFDPPRP | 0.14 |
| RRIRQRPPRLPRPRPRPDYLPRP | -0.212 |
| RRIRQRPPRLPRPRPRPDLEPRP | -0.0293 |
| RRIRYRPPRLPRPRPRPIMCPRP | -0.197 |
| RRIRRRPPRLPRPRPRPWCDPRP | 0.0743 |
| RRIRHRPPRLPRPRPRPQYCPRP | -0.00186 |
| RRIRQRPPRLPRPRPRPCITPRP | -0.167 |
| RRIRHRPPRLPRPRPRPYFKPRP | -1.03 |
| RRIRWRPPRLPRPRPRPHHDPRP | -0.708 |
| RRIRDRPPRLPRPRPRPQTRPRP | 0.138 |
| RRIRCRPPRLPRPRPRPMPTPRP | 0.592 |
| RRIRDRPPRLPRPRPRPSYIPRP | -0.267 |

| Sequence | shrunken log2 fold change |
| --- | --- |
| RRIRKRPPRLPRPRPRPPWHPRP | 0.349 |
| RRIRARPPRLPRPRPRPHKCPRP | -0.205 |
| RRIRGRPPRLPRPRPRPCYWPRP | 0.553 |
| RRIRVRPPRLPRPRPRPHFRPRP | -0.0776 |
| RRIRYRPPRLPRPRPRPANNPRP | -0.45 |
| RRIRRRPPRLPRPRPRPVNIPRP | -0.142 |
| RRIRYRPPRLPRPRPRPECLPRP | -0.171 |
| RRIRRRPPRLPRPRPRPIMDPRP | 0.01 |
| RRIRPRPPRLPRPRPRPANQPRP | 0.0414 |
| RRIRVRPPRLPRPRPRPRHQPRP | -0.138 |
| RRIRVRPPRLPRPRPRPYIMPRP | -0.937 |
| RRIRYRPPRLPRPRPRPCMHPRP | -0.351 |
| RRIRQRPPRLPRPRPRPNRGPRP | -0.0689 |
| RRIRMRPPRLPRPRPRPHFLPRP | -0.235 |
| RRIRSRPPRLPRPRPRPGCQPRP | 0.287 |
| RRIRDRPPRLPRPRPRPGTIPRP | -0.485 |
| RRIRQRPPRLPRPRPRPTKKPRP | -0.0835 |
| RRIRGRPPRLPRPRPRPFEEPRP | 0.231 |
| RRIRNRPPRLPRPRPRPWVIPRP | -0.552 |
| RRIRVRPPRLPRPRPRPHPQPRP | -0.0987 |
| RRIRQRPPRLPRPRPRPVPMPRP | 0.132 |
| RRIRGRPPRLPRPRPRPSMIPRP | 0.267 |
| RRIRSRPPRLPRPRPRPENKPRP | -0.125 |
| RRIRCRPPRLPRPRPRPYGMPRP | -0.0815 |
| RRIRSRPPRLPRPRPRPDRRPRP | -0.0434 |
